Results from PMC7755208, “Design of novel granulopoietic proteins by topological rescaffolding” (PLoS Biology, 2020).

Tests used:
[1] = target: T1, recombinant human G-CSF receptor (R&D systems 381-GR-050/CF) (human, UniProt Q99062 25-333); assay: SPR; Biacore X100, multi-cycle kinetics; G-CSFR immobilised on a CM5 chip by amine coupling; analytes in 10 mM HEPES pH 7.4, 150 mM NaCl, 3.4 mM EDTA, 0.005% Tween-20; 25°C, 30 uL/min; 1:1 model, ka and kd from a linear fit of kobs against concentration; conditions: both partners purified
T1 construct: granulocyte colony-stimulating factor receptor, human, recombinant; As recalled, this catalogue item is a soluble extracellular form of the receptor; also called rhG-CSFR; granulocyte colony-stimulating factor receptor; source: bought: R&D systems 381-GR-050/CF
T1 sequence: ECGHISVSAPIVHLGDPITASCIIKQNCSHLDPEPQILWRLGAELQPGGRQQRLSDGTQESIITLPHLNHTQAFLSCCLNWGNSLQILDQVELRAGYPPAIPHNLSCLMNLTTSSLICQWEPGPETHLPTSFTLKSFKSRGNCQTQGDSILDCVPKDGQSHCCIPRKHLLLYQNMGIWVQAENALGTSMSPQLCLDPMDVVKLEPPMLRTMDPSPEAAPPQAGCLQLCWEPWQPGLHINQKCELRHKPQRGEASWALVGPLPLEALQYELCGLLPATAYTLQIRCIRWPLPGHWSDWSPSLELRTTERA

[2] = target: T1, recombinant human G-CSF receptor (R&D …); assay: as above; conditions: both partners purified; remark: listed apart in the source

Kd [1]: 1.4 nM
Kd [2]: 1.1 nM
koff [2]: 0.00049 s⁻¹
kon [2]: 300000 M⁻¹ s⁻¹
B1: recombinant human granulocyte colony-stimulating factor (USP RS Filgrastim) (ligand, UniProt P09919-2 31-204, looked up)
chain: TPLGPASSLPQSFLLKCLEQVRKIQGDGAALQEKLCATYKLCHPEELVLLGHSLGIPWAPLSSCPSQALQLAGCLSQLHSGLFLYQGLLQALEGISPELGPTLDTLQLDVADFATTIWQQMEELGMAPALQPTQGAMPAFASAFQRRAGGVLVASHLQSFLEVSYRVLRHLAQP
notes: granulocyte colony-stimulating factor, human, as filgrastim; printed size 19 kDa; The SPR methods name filgrastim; also called rhG-CSF; G-CSF; source: bought: USP RS Filgrastim, Sigma-Aldrich 1270435
